In paper PMC9517163:

Biological target: minke whale ACE2, mFc-tagged (minke whale)
Test: SPR

SARS-CoV-2 receptor-binding domain (RBD), prototype (from UniProt P0DTC2) (domain or fragment)
Kd: 156 nM
